In patent US20020103133:

Assays:
[1] = target: T1, acetyl-G-P-L-G-L-A-L-Dox
T1 chain: XPLGLAL

[2] = target: T2, acetyl-G-P-L-G-L-L-Dox
T2 chain: XPLGLL

[3] = target: T3, acetyl-G-P-L-G-L-Y-Dox
T3 chain: XPLGLY

[4] = target: T4, acetyl-P-L-G-Hof-Orn-L-Dox
T4 chain: XLGXXL

[5] = target: T5, acetyl-P-L-G-Hof-Y-L-Dox
T5 chain: XLGXYL

[6] = target: T6, acetyl-P-L-G-L-A-A-L-Dox
T6 chain: XLGLAAL

[7] = target: T7, acetyl-P-L-G-L-A-L-Dox
T7 chain: XLGLAL

[8] = target: T8, acetyl-P-L-G-L-L-A-L-Dox
T8 chain: XLGLLAL

[9] = target: T9, acetyl-P-L-G-L-L-Dox
T9 chain: XLGLL

[10] = target: T10, acetyl-P-L-G-L-L-S-L-Dox
T10 chain: XLGLLSL

[11] = target: T11, acetyl-P-L-G-L-Y-A-L-Dox
T11 chain: XLGLYAL

[12] = target: T12, acetyl-P-L-G-L-Y-L-Dox
T12 chain: XLGLYL

[13] = target: T13, succinyl-P-L-G-Hof-Y-L-Dox
T13 chain: XLGXYL

B1: MMP-2 (protein)
chain: YNFFPRKPKWDKNQITYRIIGYTPDLDPETVDDAFARAFQVWSDVTPLRFSRIHDGEADIMINFGRWEHGDGYPFDGKDGLLAHAFAPGTGVGGDSHFDDDELWTLGEGQVVRVKYGNADGEYCKFPFLFNGKEYNSCTDTGRSDGFLWCSTTYNFEKDGKYGFCPHEALFTMGGNAEGQPCKFPFRFQGTSYDSCTTEGRTDGYRWCGTTEDYDRDKKYGFCPETAMSTVGGNSEGAPCVFPFTFLGNKYESCTSAGRSDGKMWCATTANYDDDRKWGFCPDQGYSLFLVAAHEFGHAMGLEHSQDPGALMAPIYTYTKNFRLSQDDIKGIQELYGASPDIDLGTGPTPTLGPVTPEICKQDIVFDGIAQIRGEIFFFKDRFIWRTVTPRDKPMGPLLVATFWPELPEKIDAVYEAPQEEKAVFFAGNEYWIYSASTLERGYPKPLTSLGLPPDVQRVDAAFNWSKNKKTYIFAGDKFWRYNEVKKKMDPGFPKLIADAWNAIPDNLDAVVDLQGGGHSYFFKGAYYLKLENQSLKSVKFGSIKSDWLGC
[1]
  kcat/Km (cleavage of conjugate, HPLC): 8.6e+07 M⁻¹ s⁻¹
[2]
  kcat/Km (cleavage of conjugate, HPLC): 3e+07 M⁻¹ s⁻¹
[3]
  kcat/Km (cleavage of conjugate, HPLC): 4e+07 M⁻¹ s⁻¹
[4]
  kcat/Km (cleavage of conjugate, HPLC): 1.36e+08 M⁻¹ s⁻¹
[5]
  kcat/Km (cleavage of conjugate, HPLC): > 1.2e+08 M⁻¹ s⁻¹
[6]
  kcat/Km (cleavage of conjugate, HPLC): 1.1e+08 M⁻¹ s⁻¹
[7]
  kcat/Km (cleavage of conjugate, HPLC): 5.3e+07 M⁻¹ s⁻¹
[8]
  kcat/Km (cleavage of conjugate, HPLC): 6.3e+07 M⁻¹ s⁻¹
[9]
  kcat/Km (cleavage of conjugate, HPLC): 1.8e+07 M⁻¹ s⁻¹
[10]
  kcat/Km (cleavage of conjugate, HPLC): 1.03e+08 M⁻¹ s⁻¹
[11]
  kcat/Km (cleavage of conjugate, HPLC): 1.9e+08 M⁻¹ s⁻¹
[12]
  kcat/Km (cleavage of conjugate, HPLC): 8.8e+07 M⁻¹ s⁻¹
[13]
  kcat/Km (cleavage of conjugate, HPLC): > 1.2e+08 M⁻¹ s⁻¹

B2: Neprilysin (protein)
chain: YDDGICKSSDCIKSAARLIQNMDATTEPCTDFFKYACGGWLKRNVIPETSSRYGNFDILRDELEVVLKDVLQEPKTEDIVAVQKAKALYRSCINESAIDSRGGEPLLKLLPDIYGWPVATENWEQKYGASWTAEKAIAQLNSKYGKKVLINLFVGTDDKNSVNHVIHIDQPRLGLPSRDYYECTGIYKEACTAYVDFMISVARLIRQEERLPIDENQLALEMNKVMELEKEIANATAKPEDRNDPMLLYNKMTLAQIQNNFSLEINGKPFSWLNFTNEIMSTVNISITNEEDVVVYAPEYLTKLKPILTKYSARDLQNLMSWRFIMDLVSSLSRTYKESRNAFRKALYGTTSETATWRRCANYVNGNMENAVGRLYVEAAFAGESKHVVEDLIAQIREVFIQTLDDLTWMDAETKKRAEEKALAIKERIGYPDDIVSNDNKLNNEYLELNYKEDEYFENIIQNLKFSQSKQLKKLREKVDKDEWISGAAVVNAFYSSGRNQIVFPAGILQPPFFSAQQSNSLNYGGIGMVIGHEITHGFDDNGRNFNKDGDLVDWWTQQSASNFKEQSQCMVYQYGNFSWDLAGGQHLNGINTLGENIADNGGLGQAYRAYQNYIKKNGEEKLLPGLDLNHKQLFFLNFAQVWCGTYRPEYAVNSIKTDVHSPGNFRIIGTLQNSAEFSEAFHCRKNSYMNPEKKCRVW
[1]
  kcat/Km (cleavage of conjugate, HPLC): 4.2e+07 M⁻¹ s⁻¹
[2]
  kcat/Km (cleavage of conjugate, HPLC): 2e+07 M⁻¹ s⁻¹
[3]
  kcat/Km (cleavage of conjugate, HPLC): 1.9e+07 M⁻¹ s⁻¹
[4]
  kcat/Km (cleavage of conjugate, HPLC): < 1e+06 M⁻¹ s⁻¹
[5]
  kcat/Km (cleavage of conjugate, HPLC): < 1e+06 M⁻¹ s⁻¹
[6]
  kcat/Km (cleavage of conjugate, HPLC): 1.2e+08 M⁻¹ s⁻¹
[7]
  kcat/Km (cleavage of conjugate, HPLC): 4.9e+07 M⁻¹ s⁻¹
[8]
  kcat/Km (cleavage of conjugate, HPLC): 1e+08 M⁻¹ s⁻¹
[9]
  kcat/Km (cleavage of conjugate, HPLC): 2.2e+07 M⁻¹ s⁻¹
[10]
  kcat/Km (cleavage of conjugate, HPLC): 8.2e+07 M⁻¹ s⁻¹
[11]
  kcat/Km (cleavage of conjugate, HPLC): 3.88e+08 M⁻¹ s⁻¹
[12]
  kcat/Km (cleavage of conjugate, HPLC): 2.2e+07 M⁻¹ s⁻¹
[13]
  kcat/Km (cleavage of conjugate, HPLC): < 1e+06 M⁻¹ s⁻¹
